Test system: MS2 coat protein
Assay: apparent KD of MS2 coat protein; higher = weaker reporter binding
Details: Eterna round: R107
Protocol: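 RNA-MaP round R107: designed RNA switches with theophylline, tryptophan, arginine or FMN aptamers are transcribed on-chip within common flanks. They are titrated with SNAP-549-labelled MS2 coat protein in RNA-MaP buffer (100 mM Tris pH 7.5, 80 mM KCl, 4 mM MgCl2), without ligand or with the indicated ligand. Median apparent KD per design.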

[1] = input ligand: theophylline 20 uM
[2] = input ligand: theophylline 2 mM
[3] = input ligand: tryptophan 2.4 mM

Sequence | apparent KD of MS2 coat protein (input ligand: arginine 13.2 mM) | apparent KD of MS2 coat protein [1] | apparent KD of MS2 coat protein [2] | apparent KD of MS2 coat protein [3] | apparent KD of MS2 coat protein (input ligand: none)
CUCCCGUGGUCGGCCGCCACUGGAGGCCUCGCGCGACAUGAGGAUCACCCAUGUUGGCCCGGCUUCAGGACCGGGAUCGCGUGAG [#1 Same State - Tryptophan B Attempt #8 (HarryS)] | 12.2 nM | 16.2 nM | 12.6 nM |  | 
AACCGAGGCUAUCCUCUAAGAAUAUGUGAUACCAGAAUAAUUUUAUUCCCUUGGCAGCAUGACAUGAGGAUCACCCAUGUGUCUU [SSTheo A #7] | 70 nM | 136 nM |  | 136 nM | 
UUCACAUGAUCUGAAUAUACAGAAAAGAAACGAGGACCGGUACGGCCGCCACUCGUGCCGGAAACAUGAGGAUCACCCAUGUGUU [AK1.3 Exclusion TrypA mod IceBolt] | 19.7 nM | 28.5 nM | 26.2 nM |  | 
UGUAUGUGAUCUGAUACCAGUCCAACUGGUAAACCAUGAGGAUCACCCAUGGAAAAUUGGGACCCUUGGCAGCAGAUCGCAUACU | 96.5 nM | 236 nM | 20.9 nM | 322 nM | 
GUAGCGACGACGGCCGCCACUCACAGGUGAGGGUAGACCAACCUUCACAUGAGGAUCACCCAUGUGAGGACCGGGUUGUCGCUAC [#12 Exclusion Tryptophan B] | 57.5 nM | 109 nM | 81.4 nM | 168 nM | 79 nM
UAUCCACAUGAGGAUCACCCAUGUAAGGAAGGAGCGGUGAAUGCACCAGGUAGGUCGCCUUGCUGAGGACAGCCGGUGGAUUCGU [Exclusion - Arginine A (Freestyle 24)] | 14.7 nM | 17.9 nM | 21.9 nM | 16.2 nM | 17.7 nM
CGGCCCUCACCUGAGGAUCACCCGGGUGAUACCAGCCUGGAAACAGGCCCUUGGCAGCACCAGGUCAUCAAAGAUGACCAAGCCG [TheoAX 26 #OpenEnded #AlternativeMS2] | 21.3 nM | 110 nM | 2630 nM | 105 nM | 97.5 nM
UCGUGUCUAUUGGUUUAGCUUUAAUCGUUACGAGGACCGGUACGGCCGCCACUCGAUUUAACAUGAGGAUCACCCAUGUACUCUC [JR_ExcTryptoA_Sub012] | 17.5 nM | 26.6 nM | 21.4 nM |  | 
ACGAGACGUCUGGAUACCAGCCCAGCGAUAAACAUGAGGAUCACCCAUGUCAAACCACCCGGCCCUUGGCAGCCACGUACCUCAC [theeternabot_sameState_MS2_Theo_B_10] | 15.9 nM | 19.1 nM |  | 14.9 nM | 
UAUAUAUAUAUGGAUACCAGCAGAGAAAACGUUUAUCCUAACAUGAGGAUCACCCAUGUAUGCCCUUGGCAGCUGUAUAUAUAUA [8.G] | 21.4 nM | 29.5 nM |  | 24.7 nM | 
GGAUAGGACACGGCCGCCACUGCGCUAGGAUACUAGAACAUUUCCUCACAUGAGGAUCACCCAUGUAGGACCGGGUGUCCUAUCG | 34 nM | 76.7 nM | 60.4 nM |  | 
AUCGUACCUAAUGAUACCAGCAAGUGAUCAUAACAUGAGGAUCACCCAUGUAAUCAGUGAUGCCCUUGGCAGCAUAAUCGUUACA [Same State - Theophylline B (Freestyle 2)] | 94.7 nM | 218 nM |  | 169 nM | 
AUCUUUGAUGAUCUGGGAAAACCAGAUCGGCGAGGACCGGUACGGCCGCCACUCGUGUAUAAUAUACAUGAGGAUCACCCAUGUA [#20 Tryptophan A Same State] | 50 nM | 99 nM | 91.6 nM | 25.1 nM | 55.4 nM
ACAUGAGGAUCACCCAUGUCAGGGCACGAUACCAGCUGAUCCGGUGGCCCUUGGCAGCGUGACGUUUGGUCCCGCGGAUCACACG [xxmullin] | 92.4 nM | 262 nM | 334 nM | 404 nM | 326 nM
ACUGGACAUGAGGAUCACCCAUGUGGCGAUACCAGUUUCAGCGGGAACCCUUGGCAGCGCGGUGCCGGCCAUAGAAGUUCUGGGA [theeternabot_sameState_MS2_Theo_A_39] | 42.1 nM | 56.1 nM |  | 40.6 nM | 
UUGCAGAUCGGAAAGGUCCUGCUGUUCGAAGGAGCGGUAAAAGUACCAGGUAGGUCGCGAACAUGAGGAUCACCCAUGUUUGCAA [Usmaenbi] | 11.3 nM | 28.2 nM | 20.2 nM | 21.1 nM | 22.3 nM
CAAAUAAGAACAAACAAAUAACGGUUUUCGCGAGGACCGGUACGGCCGCCACUCGUGUGAAAUAACACAUGAGGAUCACCCAUGU [3'end-1] | 31.8 nM | 44.6 nM | 47.9 nM |  | 
ACAUGAGGAUCACCCAUGUACUGGAUCUAACGAGGACCGGUACGGCCGCCACUCGAAGAUAGGACUAUGGAAACAUAGCUUAUCA [Design 1] | 15.3 nM | 19.9 nM | 18.4 nM | 14.6 nM | 15.3 nM

— the supplement of paper PMC9170038
